Assay results from patent publication US7192728B2, “Screening assays for agents that alter inhibitor of apoptosis (IAP) protein regulation of caspase activity” (The Burnham Institute, priority 1997, dated 2007).

Legend:
[1] = system: HeLa cell nuclei in cytosolic extract; experiment: Apoptosis of isolated nuclei in cell-free system (cytochrome c/dATP); settings: 0.4 μM protein with 10 μM cytochrome c and 1 mM dATP; 37° C., 60 min; baseline about 15%, cytochrome c/dATP alone >95%
Description: Cells were washed with ice cold buffer A (20 mM Hepes (pH 7.5), 10 mM KCl, 1.5 mM MgCl2, 1 mM EDTA, 1 mM DTT and 0.1 mM PMSF) and suspended in 1 vol buffer A, then incubated on ice for 20 min. 293 cells were disrupted by passage 15× through a 26 gauge needle and Jurkat T cells were disrupted by dounce homogenization in 2 ml using 15 strokes with a pestle B. Cell extracts (10–15 mg total protein/ml) were clarified by centrifugation at 16,000×g for 30 min, then the NaCl concentration was increased by 50 mM. Cytosolic fractions were used immediately or stored frozen at −80° C.
Isolated nuclei were prepared from HeLa cells (Martin et al., supra, 1995). Approximately 5×10^4 to 1×10^5 nuclei were added to 20 μl cytosolic extract and apoptosis was initiated by adding 10 μM horse heart cytochrome c (Sigma, Inc.; St. Louis Mo.) and 1 mM dATP, alone (positive control) or with cytochrome c, dATP and either 0.4 μM GST-XIAP or 0.4 μM GST-Bcl-2. Following incubation at 37° C. for 60 min., nuclei were stained with 1 μg/ml of acridine orange and ethidium bromide and the percentage nuclei with apoptotic features, including extremely condensed chromatin and the genesis of fragmentation of nuclei, was determined.

caspase-1 = target: T1, caspase-1 (Homo sapiens, UniProt P29466); experiment: Inhibition of purified recombinant caspase-1, substrate hydrolysis; type: biochemical; settings: 50-fold molar excess
T1 construct: Purified active caspase concentrations ranged from 0.1 nM to 10 nM; made in house
T1 sequence (P29466 120-297 limits assumed): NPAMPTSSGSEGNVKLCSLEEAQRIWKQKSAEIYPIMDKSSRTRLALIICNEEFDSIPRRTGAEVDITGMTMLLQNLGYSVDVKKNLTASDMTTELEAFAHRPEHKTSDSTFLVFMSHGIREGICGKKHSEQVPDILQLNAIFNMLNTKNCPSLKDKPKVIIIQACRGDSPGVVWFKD
T1 sequence (P29466 317-404 limits assumed): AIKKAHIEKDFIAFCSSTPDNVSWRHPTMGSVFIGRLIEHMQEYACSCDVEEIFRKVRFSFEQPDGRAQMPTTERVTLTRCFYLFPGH
Description: (§1) Purified recombinant caspase-1, caspase-3, caspase-6, caspase-7 or caspase-8 were incubated with DEVD-pNA, either alone or with a 10-fold to 50-fold molar excess of GST-XIAP ([…]) and substrate hydrolysis was measured. Purified active caspase concentrations ranged from 0.1 nM to 10 nM. XIAP concentration ranged from 0.1 nM to 500 nM. Assays were performed in caspase buffer (50 mM Tris, pH 7.4, 100 mM NaCl, 10% sucrose, 5–10 mM DTT, 1 mM EDTA and 0.1% CHAPS).

caspase-7 = target: T2, caspase-7 (Homo sapiens, UniProt P55210); experiment: Inhibition of purified recombinant caspase-7, DEVD substrate hydrolysis and progress curves; type: biochemical
T2 construct: Purified active caspase concentrations ranged from 0.1 nM to 10 nM; His6; made in house; host or cells: E. coli BL21(DE3)pLysS
T2 sequence (P55210 24-198 limits assumed): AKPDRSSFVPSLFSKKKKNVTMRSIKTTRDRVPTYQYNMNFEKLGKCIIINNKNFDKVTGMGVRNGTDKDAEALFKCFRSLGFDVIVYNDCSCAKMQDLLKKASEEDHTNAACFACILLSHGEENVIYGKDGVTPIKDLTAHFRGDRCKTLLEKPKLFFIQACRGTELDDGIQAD
T2 sequence (P55210 207-303 limits assumed): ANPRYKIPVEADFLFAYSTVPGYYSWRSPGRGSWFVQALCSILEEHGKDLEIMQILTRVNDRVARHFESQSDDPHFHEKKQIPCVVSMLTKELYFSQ
Description: Purified recombinant caspase-1, caspase-3, caspase-6, caspase-7 or caspase-8 were incubated with DEVD-pNA, either alone or with a 10-fold to 50-fold molar excess of GST-XIAP (20 μM) and substrate hydrolysis was measured. Purified active caspase concentrations ranged from 0.1 nM to 10 nM. XIAP concentration ranged from 0.1 nM to 500 nM. Assays were performed in caspase buffer (50 mM Tris, pH 7.4, 100 mM NaCl, 10% sucrose, 5–10 mM DTT, 1 mM EDTA and 0.1% CHAPS).

caspase-3 = target: T3, caspase-3 (Homo sapiens, UniProt P42574); experiment: Inhibition of purified recombinant caspase-3, DEVD substrate hydrolysis and progress curves; type: biochemical
T3 construct: to produce the 17–20 kDa mature, fully processed large subunit of the active caspase-3 enzyme; a smaller, fully processed, subunit of about 11 kDa; His6; made in house; host or cells: E. coli BL21(DE3)pLysS
T3 sequence (P42574 29-175 limits assumed): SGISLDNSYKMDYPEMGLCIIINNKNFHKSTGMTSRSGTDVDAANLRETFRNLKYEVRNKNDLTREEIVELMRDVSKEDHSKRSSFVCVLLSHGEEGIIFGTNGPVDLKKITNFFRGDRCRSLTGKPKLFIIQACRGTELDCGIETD
T3 sequence (P42574 176-277 limits assumed): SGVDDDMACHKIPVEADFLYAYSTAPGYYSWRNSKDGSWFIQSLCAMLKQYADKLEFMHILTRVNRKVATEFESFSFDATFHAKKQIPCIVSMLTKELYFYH
Description: as §1
(§2) Equilibria were determined from progress curves when substrate hydrolysis reached a steady-state; slopes were calculated by curve fit analysis using the cricket graph program. Experiments were performed using purified recombinant caspase-3, caspase-6, or caspase-7. DEVD-AFC hydrolysis was measured using 0.1 nM caspase and a range of concentrations (0.2 to 12 μM) of recombinant XIAP (rXIAP). […] Average ratio velocities (vi/vo, where “vi” indicates presence of GST-XIAP and “vo” indicates absence of GST-XIAP) were determined.
Caspase activity was determined essentially as described in Example II, using the benzylyoxycarbonyl-DEVD-AFC (SEQ ID NO: 2) substrate and was assayed at 37° C. using the Perkin-Elmer LS50B fluorometric plate reader in the kinetic mode with excitation and emission wavelengths of 400 nm and 505 nm, respectively. […] Reactions were performed in caspase buffer (50 mM Hepes, 100 mM NaCl, 1 mM EDTA, 0.1% CHAPS, 10% sucrose, 5 mM DTT). The inhibition constant, Ki, was calculated as described (Zhou et al., supra, 1997). Immunoblot analysis was performed as described in Example I.B.3.

caspase-8 = target: T4, caspase-8 (Homo sapiens, UniProt Q14790); experiment: Inhibition of purified recombinant caspase-8, DEVD substrate hydrolysis; type: biochemical
T4 construct: a cDNA encoding the catalytic subunit of caspase-8 (Ser 217 to the C-terminus); His6; made in house; host or cells: E. coli BL21(DE3)pLysS
T4 sequence (Q14790 217-374 limits assumed): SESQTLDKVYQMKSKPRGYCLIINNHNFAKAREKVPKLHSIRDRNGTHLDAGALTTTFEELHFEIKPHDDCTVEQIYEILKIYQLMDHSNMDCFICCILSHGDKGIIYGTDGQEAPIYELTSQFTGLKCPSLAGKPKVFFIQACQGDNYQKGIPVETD
T4 sequence (Q14790 385-479 limits assumed): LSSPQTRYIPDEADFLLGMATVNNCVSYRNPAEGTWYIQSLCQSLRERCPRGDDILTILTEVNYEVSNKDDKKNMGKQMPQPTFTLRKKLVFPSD
Description: as §1, §2

caspase-6 = target: T5, caspase-6 (Homo sapiens, UniProt P55212); experiment: Inhibition of purified recombinant caspase-6, DEVD substrate hydrolysis; type: biochemical
T5 construct: Purified active caspase concentrations ranged from 0.1 nM to 10 nM; His6; made in house; host or cells: E. coli BL21(DE3)pLysS
T5 sequence (P55212 24-179 limits assumed): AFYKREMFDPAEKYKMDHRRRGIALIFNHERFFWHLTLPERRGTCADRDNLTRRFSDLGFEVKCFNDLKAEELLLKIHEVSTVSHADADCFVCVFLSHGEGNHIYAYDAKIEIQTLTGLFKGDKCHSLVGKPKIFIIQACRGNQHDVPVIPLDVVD
T5 sequence (P55212 194-293 limits assumed): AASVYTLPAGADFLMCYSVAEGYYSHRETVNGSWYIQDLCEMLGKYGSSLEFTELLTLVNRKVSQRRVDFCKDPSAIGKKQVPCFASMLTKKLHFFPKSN
Description: as §1, §2

[2] = DEVD-AFC hydrolysis with/without GST-XIAP

XIAP: X chromosome linked inhibitor of apoptosis protein (Genbank U32974), used mostly as recombinant GST fusion or expressed from plasmid
apoptotic nuclei [1]: about 15% | interference with substrate cleavage by caspase-1 (caspase-1): did not interfere | inhibition of processing of DEVD-pNA by caspase-7 (caspase-7; 10-fold molar excess): greater than 95% | average ratio velocity (vi/vo), caspase-7 (caspase-7; [2]): less than 0.2 | Ki (caspase-7; progress curve analysis, DEVD-AFC 0.1 mM, 0.1 nM caspase, read-out: inhibition constant (Ki) for caspase-7): ~200 pM | inhibition of processing of DEVD-pNA by caspase-3 (caspase-3; 10-fold molar excess): greater than 95% | average ratio velocity (vi/vo), caspase-3 (caspase-3; [2]): less than 0.2 | Ki (caspase-3; progress curve analysis, DEVD-AFC 0.1 mM, 0.1 nM caspase, read-out: inhibition constant (Ki) for caspase-3): ~700 pM | interference with substrate cleavage by caspase-8 (caspase-8; 50-fold molar excess): did not interfere | average ratio velocity (vi/vo), caspase-8 (caspase-8; [2]): about 1.0 | interference with substrate cleavage by caspase-6 (caspase-6; 50-fold molar excess): did not interfere | average ratio velocity (vi/vo), caspase-6 (caspase-6; [2]): about 1.0
